{"source": "paper PMC9018529", "about": "(Molecular microbiology, 2022)", "molecular_target": "the molecule itself", "assay": "SEC"}
{"protein": "SymE (Escherichia coli MG1655), untagged after TEV cleavage of His6-TEV-SymE (natural protein, E. coli MG1655, UniProt P39394 1-113, looked up) MTDTHSIAQPFEAEVSPANNRHVTVGYASRYPDYSRIPAITLKGQWLEAAGFATGTAVDVKVMEGCIVLTAQPPAAEESELMQSLRQVCKLSARKQKQVQAFIGVIAGKQKVA", "values": [{"measurement": "stoichiometry N", "value": "~4"}]}
